Data reported in US20170233470A1 (INSERM INSTITUT NATIONAL DE LA SANT ET DE LA RECHERCHE M …, published 2017).

Biological target: Neurotensin (NTS) (UniProt P30990 151-163)
Experiment: cell-based or functional assay

B1: NTSp27-7.4 (antibody, V domains shown)
VH: DVKLVESGGGLVKLGGSLKLSCAASGFTFSGYYMSWVRQTPEKRLELVAAINNYGDNTNYPDTVKGRFSVSRDNAKNTLYLEMNSLKSEDTALYYCARLANYANQRGAMDYWGQGTSVTVSS
VL: DIQMTHTTSSLSASLGDRVTISCRASQDIANYLNWYQQKPDGTVTLLIYYTSRLHSGVPSRFSGSGSGTDYSLTINNLDQEDIATYFCQQGYTLPPTFGGGTKLEIK
Q: What does the source list for B1?
A: apoptosis of A2780 cells (Annexin V-FITC/PI, flow cytometry), fold increase relative to control cells: 2.5 fold; apoptosis of SKOV3 cells (Annexin V-FITC/PI, flow cytometry), fold increase relative to control cells: 8.2 fold
